Reference: article PMC4407741

Molecular target: soluble human neonatal Fc receptor (shFcRn; FcRn heavy chain ectodomain / beta2-microglobulin heterodimer) (UniProt P55899+P61769)
Experiment: SPR (BIAcore 3000)
Conditions: 25°C, 150 mM NaCl, HBS-P: 10 mM HEPES at pH 6.0 and pH 7.5 (same buffer at both pH)

Row | koff (pH 6.0) [s⁻¹] | koff (pH 7.4) [s⁻¹] | Kd (pH 6.0) [nM] | kon (pH 6.0) [M⁻¹ s⁻¹] | Kd (pH 7.5) [nM] | koff (pH 7.5) [s⁻¹] | kon (pH 7.5) [M⁻¹ s⁻¹] | Substance
1 | 0.0177 | 0.0752 | – | – | – | – | – | DX-2500 (germlined parental clone M90-F11), fully human anti-FcRn IgG1 germlined relative to M90-F11 (changes not printed)
2 | 0.00035 | – | 1.5 | 240000 | 1.9 | 0.00028 | 150000 | DX-2504 (clone M161-B04), fully human anti-FcRn IgG1 Affinity-matured heavy-chain CDR variant of DX-2500/M90-F11 (substitutions not printed)
3 | 0.00024 | – | 1.8 | 130000 | 2 | 0.00024 | 100000 | DX-2507, fully human anti-FcRn IgG1 (variant of DX-2504) relative to DX-2504: LC-CDR3 Cys->Ala (position number not printed); C-terminal Lys deleted
